B1: Fab VH1-46_IGHD6-6*01_IGHJ1*01 S102A/S103P/S104F/H111F N52L/S54T/G56H & L6_IGKJ1*01 S28N/S30D/S31H S52L/A55S (Fab, V domains shown)
VH: QVQLVQSGAEVKKPGASVKVSCKASGYTFTSYYMHWVRQAPGQGLEWMGIILPTGHSTSYAQKFQGRVTMTRDTSTSTVYMELSSLRSEDTAVYYCAREEYAPFSAEYFQFWGQGTLVTVSS
VL: EIVLTQSPATLSLSPGERATLSCRASQNVDHYLAWYQQKPGQAPRLLIYDALNRSTGIPARFSGSGSGTDFTLTISSLEPEDFAVYYCQQRSNWPPWTFGQGTKVEIKR
notes: Fab made in E. coli: VH on CH1 with His6 and Flag tags (Plasmid A), VL on kappa CL (Plasmid C); also called H: APFF LTH & L: NDH LS
B2: Fab VH1-46_IGHD6-6*01_IGHJ1*01 S102A/S103P/S104F/H111F I51V/N52L/S54T/G56H & L6_IGKJ1*01 S28N/S30D/S31H (Fab, V domains shown)
VH: QVQLVQSGAEVKKPGASVKVSCKASGYTFTSYYMHWVRQAPGQGLEWMGIVLPTGHSTSYAQKFQGRVTMTRDTSTSTVYMELSSLRSEDTAVYYCAREEYAPFSAEYFQFWGQGTLVTVSS
VL: EIVLTQSPATLSLSPGERATLSCRASQNVDHYLAWYQQKPGQAPRLLIYDASNRATGIPARFSGSGSGTDFTLTISSLEPEDFAVYYCQQRSNWPPWTFGQGTKVEIKR
notes: Fab made in E. coli: VH on CH1 with His6 and Flag tags (Plasmid A), VL on kappa CL (Plasmid C); also called H: APFF VLTH & L: NDH
B3: Fab VH5-51_IGHD5-18*01>3_IGHJ4*01 G100K/G104T & V3-4_IGLJ1*01 M94R/S96M (Fab, V domains shown)
VH: EVQLVQSGAEVKKPGESLKISCKGSGYSFTSYWIGWVRQMPGKGLEWMGIIYPGDSDTRYSPSFQGQVTISADKSISTAYLQWSSLKASDTAMYYCARRKYSYTYDYFDYWGQGTLVTVSS
VL: QTVVTQEPSFSVSPGGTVTLTCGLSSGSVSTSYYPSWYQQTPGQAPRTLIYSTNTRSSGVPDRFSGSILGNKAALTITGAQADDESDYYCVLYRGMGISYVFGTGTKVTVL
notes: Fab made in E. coli: VH on CH1 with His6 and Flag tags (Plasmid A), VL on lambda CL (Plasmid E); also called H: KT & L: RM
B4: Fab VH5-51_IGHD5-18*01>3_IGHJ4*01 G100K/G104T G24L/S28R/G35V & V3-4_IGLJ1*01 (Fab, V domains shown)
VH: EVQLVQSGAEVKKPGESLKISCKLSGYRFTSYWIVWVRQMPGKGLEWMGIIYPGDSDTRYSPSFQGQVTISADKSISTAYLQWSSLKASDTAMYYCARRKYSYTYDYFDYWGQGTLVTVSS
VL: QTVVTQEPSFSVSPGGTVTLTCGLSSGSVSTSYYPSWYQQTPGQAPRTLIYSTNTRSSGVPDRFSGSILGNKAALTITGAQADDESDYYCVLYMGSGISYVFGTGTKVTVL
notes: Fab made in E. coli: VH on CH1 with His6 and Flag tags (Plasmid A), VL on lambda CL (Plasmid E); also called H: KT LRV & L: wt
B5: Fab VH5-51_IGHD5-18*01>3_IGHJ4*01 G100K/G104T G24T/S28R/G35V & V3-4_IGLJ1*01 M94R/S96M (Fab, V domains shown)
VH: EVQLVQSGAEVKKPGESLKISCKTSGYRFTSYWIVWVRQMPGKGLEWMGIIYPGDSDTRYSPSFQGQVTISADKSISTAYLQWSSLKASDTAMYYCARRKYSYTYDYFDYWGQGTLVTVSS
VL: QTVVTQEPSFSVSPGGTVTLTCGLSSGSVSTSYYPSWYQQTPGQAPRTLIYSTNTRSSGVPDRFSGSILGNKAALTITGAQADDESDYYCVLYRGMGISYVFGTGTKVTVL
notes: Fab made in E. coli: VH on CH1 with His6 and Flag tags (Plasmid A), VL on lambda CL (Plasmid E); also called H: KT TRV & L: RM; KT TRV-V3-4 RM
B6: Fab VH5-51_IGHD5-18*01>3_IGHJ4*01 G100K/G104T G24A/S28R/G35V & V3-4_IGLJ1*01 (Fab, V domains shown)
VH: EVQLVQSGAEVKKPGESLKISCKASGYRFTSYWIVWVRQMPGKGLEWMGIIYPGDSDTRYSPSFQGQVTISADKSISTAYLQWSSLKASDTAMYYCARRKYSYTYDYFDYWGQGTLVTVSS
VL: QTVVTQEPSFSVSPGGTVTLTCGLSSGSVSTSYYPSWYQQTPGQAPRTLIYSTNTRSSGVPDRFSGSILGNKAALTITGAQADDESDYYCVLYMGSGISYVFGTGTKVTVL
notes: Fab made in E. coli: VH on CH1 with His6 and Flag tags (Plasmid A), VL on lambda CL (Plasmid E); also called H: KT ARV & L: wt

Tests used:
[1] = target: T1, recombinant human DLL4 (Cat# 1506-D4/CF, R&D Systems) (human, UniProt Q9NR61 27-529); experiment: ELISA, DLL4 coated, Fab 20 nM
T1 construct: Bought protein; also called hDLL4; rHuman DLL4
Description: (§1) The plate was blocked by adding 1% BSA in Tris-buffered Saline Tween (TBST) and incubating for 1 hour at room temperature followed by washing 2 times with 150 μl TBST. A Fab antibody was serially diluted in 1% BSA in PBS. A 50 μl aliquot of each serial dilution was added, in triplicate, to each well and the plate was incubated for 1 hour at room temperature followed by washing 2 times with TBST. 50 μl of either goat anti-human kappa HRP conjugated secondary antibody (Cat # A7164-1 mL, Sigma-Aldrich) or goat anti-human lambda HRP conjugated secondary antibody (Cat # L1645-1 ml, Sigma-Aldrich), diluted 1:1000 in 1% BSA in PBS, was added to each well and the plate was incubated for 30 minutes at room temperature followed by washing 3 times with 200 μl TBST. Finally, 50 μl TMB one-component reagent (Cat # TMBW-1000-01, BioFax) was added and allowed to develop for 2 minutes at room temperature. The reaction was immediately halted by the addition of 50 μl 0.5M H₂SO₄ and the absorbance at 450 nm was measured using an ELISA plate reader.

[2] = target: T1, recombinant human DLL4 (Cat# …); experiment: ELISA, DLL4 coated, Fab 0.74 nM
Description: as §1

[3] = target: T1, recombinant human DLL4 (Cat# …); experiment: ELISA, DLL4 coated, Fab 2.22 nM
Description: as §1

[4] = target: T1, recombinant human DLL4 (Cat# …); experiment: ELISA, DLL4 coated, Fab 6.67 nM
Description: as §1

[5] = target: T1, recombinant human DLL4 (Cat# …); experiment: SPR (ProteOn), hDLL4 amine-coupled on chip
Description: In this example, the binding affinities of selected anti-DLL4 Fabs to recombinant human DLL4 (hDLL4, Cat# 1506-D4/CF, R&D Systems) were analyzed using Surface Plasmon Resonance (SPR) (Biosensor Tools, Salt Lake City, Utah). The Fabs analyzed include germline-derived antibodies and germline-modified DLL4 antibodies. Recombinant hDLL4 was immobilized on a SPR chip using amine coupling at three different surface densities. The Fabs were serially diluted 3-fold, with an initial concentration of 1 μM. Binding studies were run on a ProteOn system using a GLM sensor chip in 10 mM HEPES, pH 7.4, 150 mM NaCl, 0.01% Tween-20, and 0.1 mg/ml BSA at 25° C. The response data from each surface was globally fit to determine the binding constants.

Binder	ELISA absorbance at 450 nm [1]	ELISA absorbance at 450 nm [2]	ELISA absorbance at 450 nm [3]	ELISA absorbance at 450 nm [4]	Kd [5]	koff [5]	kon [5]
B1	1.05 A450	0.398 A450	0.557 A450	0.916 A450			
B2	0.979 A450	0.288 A450	0.608 A450	0.776 A450	2.7 nM	0.00113 s⁻¹	430000 M⁻¹ s⁻¹
B3	0.087 A450	0 A450	0.007 A450	0.023 A450			
B4	0.027 A450	0.006 A450	0 A450	0.005 A450			
B5	0.122 A450	0.006 A450	0.028 A450	0.062 A450	40.3 nM	0.101 s⁻¹	2.53e+06 M⁻¹ s⁻¹
B6	0.054 A450	0.008 A450	0.002 A450	0.025 A450			
